The results in this text go back to article doi:10.1101/2020.09.22.308338 (bioRxiv, 2020).

This assay deals with stabilized homotrimeric spike protein of SARS-CoV-2 (SARS-CoV-2 (Wuhan-Hu-1 sequence, strain …, UniProt P0DTC2, stabilised)). Put plainly: bead-based multiplex ACE2 competition assay.

B1: nanobody NM1230 (VHH)
VHH: QVQLVESGGGLVRPGGSLRLSCVGSGFTFSGYAMNWYRQAPGKALELVAGISNAGDLTHYEEPMKGRVAISRANDKNTVYLQMDDLKPEDTAVYRCHAPGVRVGTGERKDVWGQGAQVTVSS
Consider B1, for which the binding result is on record as “binds”.
